From paper PMC2686680, “Chibby forms a homodimer through a heptad repeat of leucine residues in its C-terminal coiled-coil motif” (BMC Molecular Biology, 2009)

B1: Cby wild type fused to the N-terminal (RN) or C-terminal (RC) portion of synthetic Renilla luciferase (hRluc) [human] / itself (parent complex)
chain: MPFFGNTFSPKKTPPRKSASLSNLHSLDRSTREVELGLEYGSPTMNLAGQSLKFENGQWIAETGVSGGVDRREVQRLRRRNQQLEEENNLLRLKVDILLDMLSESTAESHLMEKELDELRISRKRK

Variants of: B1
Experiment: split hRluc protein-fragment-assisted complementation assay; HEK293T cells; expression plasmids 400 ng each; triplicate, means ± SD; read off a plot

| Variant | response |
| --- | --- |
| chain 1 L77A, chain 1 L84A, chain 1 L91A, chain 1 L98A | ~0.5 |
| chain 1 L77A | ~3.2 |
| chain 1 L77A, chain 1 L84A | ~0.18 |
| chain 1 L84A, chain 1 L98A | ~0.28 |
| chain 1 L77A, chain 1 L91A | ~0.55 |
| chain 1 L91A | ~4 |
| chain 1 L98A | ~5.4 |
| chain 1 L91A, chain 1 L98A | ~0.7 |
| chain 1 L84A | ~1.9 |
